Results published in KR20170108690A (dated 2017).

Biological target: T1, BSA (UniProt P02769 25-607)
T1 construct: also called 음성 대조군; 대조군
Assay: ELISA of clone supernatant on coated antigen

T1 sequence (P02769 25-607 limits assumed): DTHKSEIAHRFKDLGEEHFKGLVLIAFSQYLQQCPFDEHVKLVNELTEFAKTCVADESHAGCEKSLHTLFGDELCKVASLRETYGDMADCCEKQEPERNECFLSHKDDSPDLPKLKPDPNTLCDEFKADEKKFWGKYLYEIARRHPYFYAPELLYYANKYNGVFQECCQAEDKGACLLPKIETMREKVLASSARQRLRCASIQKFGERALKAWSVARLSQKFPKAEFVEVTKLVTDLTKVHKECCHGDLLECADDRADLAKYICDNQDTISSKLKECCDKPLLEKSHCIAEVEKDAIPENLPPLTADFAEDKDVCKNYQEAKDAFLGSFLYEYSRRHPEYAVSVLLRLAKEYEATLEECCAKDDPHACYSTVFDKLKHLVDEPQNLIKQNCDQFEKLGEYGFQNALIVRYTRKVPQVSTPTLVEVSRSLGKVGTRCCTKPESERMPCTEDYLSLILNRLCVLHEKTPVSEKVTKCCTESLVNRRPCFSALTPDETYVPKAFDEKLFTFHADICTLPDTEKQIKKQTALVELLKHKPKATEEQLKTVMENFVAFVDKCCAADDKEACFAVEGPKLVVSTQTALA

B1: NA-A4 항체 클론 (Fab 형태, 파지 디스플레이 클론의 IPTG 유도 상층액) (Fab, V domains shown)
VH: EVQLVESGGGLVQPGGSLRLSCAASGFTFNSYWMSWVRQAPGKGLEWVSWITPTSGTTYYADSVKGRFTISRDNSKNTLYLQMNSLRAEDTAVYYCARVEDWDIGYYGMDYWGQGTLVTVSS
VL: DIQMTQSPSSLSASVGDRVTITCRASQSVSNWLAWYQQKPGKAPKLLIYWASSLESGVPSRFSGSGSGTDFTLTISSLQPEDFATYYCQQYYNHPYTFGQGTKVEIK
notes: also called Influenza NA-A4 antibody; 인플루엔자 NA-A4 항체
Does B1 bind?
Result: no binding
